{"source": "patent US20210371526A1", "about": "(AMPSOURCE BIOPHARMA SHANGHAI, published 2021)", "key": {"[1]": {"target": "T1, Mucin1 on tumor cells (MCF-7, BT-549, HCC70, T-47D, HCC1954, SK-OV-3, Hela, HT-29) (human, UniProt P15941 24-1255)", "T1 construct": "whole, on cells; also called tumor cells over-expressing Mucin1", "experiment": "flow cytometry on BT-549 cells"}, "[2]": {"target": "T1, Mucin1 on tumor cells (MCF-7, BT-549, …)", "experiment": "flow cytometry on SK-OV-3 cells"}, "[3]": {"target": "T1, Mucin1 on tumor cells (MCF-7, BT-549, …)", "experiment": "flow cytometry on HCC1954 cells"}, "[4]": {"target": "T1, Mucin1 on tumor cells (MCF-7, BT-549, …)", "experiment": "flow cytometry on HCC70 cells"}, "[5]": {"target": "T1, Mucin1 on tumor cells (MCF-7, BT-549, …)", "experiment": "cell-based or functional assay"}, "[6]": {"target": "T1, Mucin1 on tumor cells (MCF-7, BT-549, …)", "experiment": "flow cytometry on T-47D cells"}, "[7]": {"target": "T1, Mucin1 on tumor cells (MCF-7, BT-549, …)", "experiment": "cell-based or functional assay", "remark": "listed apart in the source"}, "[8]": {"target": "T1, Mucin1 on tumor cells (MCF-7, BT-549, …)", "experiment": "flow cytometry on Hela cells"}}, "data": [{"binder": "Bispecific antibody AB11K (Anti-Mucin1×CD3, scFv1-scFv2-Fc) (bispecific antibody) EVQLVESGGGLVQPGGSMRLSCVASGFPFSNYWMNWVRQAPGKGLEWVGEIRLKSNNYTTHYAESVKGRFTISRDDSKNSLYLQMNSLKTEDTAVYYCTRHYYFDYWGQGTLVTVSSGGGGSGGGGSGGGGSDIVMTQSPLSNPVTPGEPASISCRSSKSLLHSNGITYFFWYLQKPGQSPQLLIYQMSNLASGVPDRFSGSGSGTDFTLRISRVEAEDVGVYYCAQNLELPPTFGQGTKVEIKGGGGGGSGGGGSGGGGSSSSSKAPPPSEVQLLESGGGLVQPGGSLKLSCAASGFTFNTYAMNWVRQAPGKGLEWVARIRSKYNNYATYYADSVKDRFTISRDDSKNTAYLQMNNLKTEDTAVYYCVRHGNFGNSYVSWFAYWGQGTLVTVSSGGGGSGGGGSGGGGSELVVTQEPSLTVSPGGTVTLTCRSSTGAVTTSNYANWVQQKPGQAPRGLIGGTNKRAPGTPARFSGSLLGGKAALTLSGVQPEDEAEYYCALWYSNLWVFGGGTKLTVLDKTHTCPPCPAPEAAGGPSVFLFPPKPKDQLMISRTPEVTCVVVDVSHEDPEVKFNWYVDGVEVHNAKTKPREEQYASTYRVVSVLTVLHQDWLNGKEYKCKVSNKALPASIEKTISKAKGQPREPQVYTLPPSRDELTKNQVSLTCLVKGFYPSDIAVEWESNGQPENNYKTTPPVLDSDGSFFLYSKLTVDKSRWQQGNVFSCSVLHEALHNHYTQKSLSLSPG", "values": [{"measurement": "EC50", "setting": "[1]", "value": 287, "unit": "nM"}, {"measurement": "EC50", "setting": "[2]", "value": 93.7, "unit": "nM"}, {"measurement": "EC50", "setting": "[3]", "value": 81.2, "unit": "nM"}, {"measurement": "EC50", "setting": "[4]", "value": 59, "unit": "nM"}, {"measurement": "T cell activation EC50 (Jurkat-NFAT luciferase) with BT-549 cells", "setting": "[5]", "value": 10.5, "unit": "nM"}, {"measurement": "T cell activation EC50 (Jurkat-NFAT luciferase) with HCC70 cells", "setting": "[5]", "value": 3.02, "unit": "nM"}, {"measurement": "T cell activation EC50 (Jurkat-NFAT luciferase) with HCC1954 cells", "setting": "[5]", "value": 5.6, "unit": "nM"}, {"measurement": "T cell activation EC50 (Jurkat-NFAT luciferase) with HT-29 cells", "setting": "[5]", "value": 6.71, "unit": "nM"}, {"measurement": "T cell activation EC50 (Jurkat-NFAT luciferase) with Hela cells", "setting": "[5]", "value": 7.24, "unit": "nM"}, {"measurement": "T cell activation EC50 (Jurkat-NFAT luciferase) with MCF-7 cells", "setting": "[5]", "value": 14.2, "unit": "nM"}, {"measurement": "T cell activation EC50 (Jurkat-NFAT luciferase) with SK-OV-3 cells", "setting": "[5]", "value": 10.4, "unit": "nM"}, {"measurement": "T cell activation EC50 (Jurkat-NFAT luciferase) with T-47D cells", "setting": "[5]", "value": 0.629, "unit": "nM"}, {"measurement": "EC50", "setting": "[6]", "value": 5.05, "unit": "nM"}, {"measurement": "PBMC killing EC50, BT-549 cells", "setting": "[7]", "value": 0.956, "unit": "nM"}, {"measurement": "PBMC killing EC50, HCC70 cells", "setting": "[7]", "value": 0.595, "unit": "nM"}, {"measurement": "PBMC killing EC50, HCC1954 cells", "setting": "[7]", "value": 1.89, "unit": "nM"}, {"measurement": "PBMC killing EC50, HT-29 cells", "setting": "[7]", "value": 9.55, "unit": "nM"}, {"measurement": "PBMC killing EC50, Hela cells", "setting": "[7]", "value": 4.81, "unit": "nM"}, {"measurement": "PBMC killing EC50, MCF-7 cells", "setting": "[7]", "value": 0.131, "unit": "nM"}, {"measurement": "T cell killing EC50, BT-549 cells", "setting": "[7]", "value": 0.141, "unit": "nM"}, {"measurement": "T cell killing EC50, HCC70 cells", "setting": "[7]", "value": 0.185, "unit": "nM"}, {"measurement": "T cell killing EC50, HCC1954 cells", "setting": "[7]", "value": 0.281, "unit": "nM"}, {"measurement": "T cell killing EC50, HT-29 cells", "setting": "[7]", "value": 1.58, "unit": "nM"}, {"measurement": "T cell killing EC50, Hela cells", "setting": "[7]", "value": 0.278, "unit": "nM"}, {"measurement": "T cell killing EC50, MCF-7 cells", "setting": "[7]", "value": 0.153, "unit": "nM"}, {"measurement": "T cell killing EC50, SK-OV-3 cells", "setting": "[7]", "value": 0.689, "unit": "nM"}, {"measurement": "T cell killing EC50, T-47D cells", "setting": "[7]", "value": 0.0845, "unit": "nM"}, {"measurement": "EC50", "setting": "[8]", "value": 5.51, "unit": "nM"}]}]}
